Results: US20160031972A1 (XIAMEN INNOVAX BIOTECH, published 2016)

Columns and labels:
[1] = target: T1, RSV F protein on Hep2 cells infected with RSV-A2 (immunofluorescent assay) (respiratory syncytial virus A2 strain, UniProt P03420 26-574); assay: immunofluorescence on RSV-A2-infected Hep2 cells, confocal microscopy
T1 construct: whole, on cells

[2] = target: T2, RSV F protein in RSV-A2 virus preparation (Western Blot sample) (respiratory syncytial virus A2 strain, UniProt P03420 26-574); assay: Western Blot, non-boiled sample
T2 construct: Loaded boiled (denatured) or non-boiled (non-denatured); also called RSV A2 strain

[3] = target: T3, post-F protein (RSV-A2 F protein with P102A, I379V, M447V and fusion peptide positions 137-146 removed, … (respiratory syncytial virus, RSV-A2, UniProt P03420 26-524)); assay: hybridoma screening, RSV-post F enzyme-linked immunosorbent assay
T3 construct: Signal peptide, furin processing and the residue of the HRV 3C site left after cleavage are not described; also called RSV-post F; post-fusion F

B1: monoclonal antibody 5C4 (antibody, V domains shown)
VH: EVQLQQSGAELVKPGASVKLSCTASGFNIKDTFFHWVKQRPEQGLEWIGRIDPADGHTKYDPKFQGKATITADTSSNTAFLQLSSLTSEDTAVYYCATTITAVVPTPYNAMDYWGQGTSVTVSS
VL: DIVLTQSPASLAVSLGQRTTISCRASESVDSFDNSFIHWYQQKPGQPPKLLIFLASSLESGVPARFSGSGSRTDFTLTIDPVEADDAATYYCQQSNEDPFTFGSGTKLEIKR
notes: Mouse hybridoma antibody purified from ascites; kappa light chain; also called 5C4 monoclonal antibody; 5C4 antibody
**Q.** Does B1 bind [1]?
**A.** Result: binds

**Q.** Does B1 bind [2]?
**A.** Result: binds

**Q.** Does B1 bind [3]?
**A.** Result: no binding
